One assay addresses HER2m1-Fc (UniProt P04626 23-652). The assay can be described thus: ELISA. (In general: In an ELISA, binding on a coated surface is turned into a signal by an enzyme label.)
Another assay deals with HER2m2-Fc (UniProt P04626 23-652). The assay can be described thus: ELISA.

B1: Tmab-CLC5 (antibody, V domains shown)
VH: not shown
VL: DIQMTQSPSSLSASVGDRVTITCKASQDVSIGVAWYQQKPGKAPKLLIYSASYRYTGVPSRFSGSGSGTDFTLTISSLQPEDFATYYCQQYYIYPYTFGQGTKVEIKR
As for B1, in the assay with HER2m1-Fc, a half-maximal response (EC50) required 0.616 µg/mL.

B2: Tmab-CLC6 (antibody, V domains shown)
VH: not shown
VL: DIQMTQSPSSLSASVGDRVTITCKASQDVSIGVAWYQQKPGKAPKLLIYSASYRYTGVPSRFSGSGSGTDFTLTISSLQPEDFATYYCQQYYITPYTFGQGTKVEIKR
Consider B2, for which the response in the assay with HER2m1-Fc was half-maximal at 1.1 µg/mL (EC50).

B3: Pmab-CLC2 (antibody, V domains shown)
VH: EVQLVESGGGLVQPGGSLRLSCAASGFTFTDYTMDWVRQAPGKGLEWVADVNPNSGGSIYNQRFKGRFTLSVDRSKNTLYLQMNSLRAEDTAVYYCARNLGPSFYFDYWGQGTLVTVSS
VL: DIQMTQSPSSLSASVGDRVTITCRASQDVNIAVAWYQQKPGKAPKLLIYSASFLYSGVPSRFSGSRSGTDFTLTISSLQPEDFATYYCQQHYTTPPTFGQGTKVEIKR
With B3, the EC50 – broadly, the midpoint of the concentration-response curve – with HER2m2-Fc stood at 0.598 µg/mL.

B4: Pmab-CLC4 (antibody, V domains shown)
VH: EVQLVESGGGLVQPGGSLRLSCAASGFTFTDYTMDWVRQAPGKGLEWVADVNPNSGGSIYNQRFKGRFTLSVDRSKNTLYLQMNSLRAEDTAVYYCARNLGPSFYFDYWGQGTLVTVSS
VL: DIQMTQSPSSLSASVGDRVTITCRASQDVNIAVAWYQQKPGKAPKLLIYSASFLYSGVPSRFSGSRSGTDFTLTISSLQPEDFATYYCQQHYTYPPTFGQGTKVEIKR
In the assay with HER2m2-Fc, B4 came in with an EC50 of 0.479 µg/mL. The EC50 values of the last two molecules are within 1.5-fold of each other.

B5: Pmab-CLC3 (antibody, V domains shown)
VH: EVQLVESGGGLVQPGGSLRLSCAASGFTFTDYTMDWVRQAPGKGLEWVADVNPNSGGSIYNQRFKGRFTLSVDRSKNTLYLQMNSLRAEDTAVYYCARNLGPSFYFDYWGQGTLVTVSS
VL: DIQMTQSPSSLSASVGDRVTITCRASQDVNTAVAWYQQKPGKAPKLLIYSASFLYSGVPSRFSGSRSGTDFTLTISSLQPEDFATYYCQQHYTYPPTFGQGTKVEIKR
In the assay with HER2m2-Fc, B5 gave an EC50 of 0.49 µg/mL. The EC50 values of the last two molecules are within 1.5-fold of each other.

B6: Pmab-CLC6 (antibody, V domains shown)
VH: EVQLVESGGGLVQPGGSLRLSCAASGFTFTDYTMDWVRQAPGKGLEWVADVNPNSGGSIYNQRFKGRFTLSVDRSKNTLYLQMNSLRAEDTAVYYCARNLGPSFYFDYWGQGTLVTVSS
VL: DIQMTQSPSSLSASVGDRVTITCKASQDVSIGVAWYQQKPGKAPKLLIYSASYRYTGVPSRFSGSGSGTDFTLTISSLQPEDFATYYCQQYYITPYTFGQGTKVEIKR
With B6, the EC50 in the assay with HER2m2-Fc turned out to be 0.393 µg/mL.

The values above are taken from patent US20210070885A1 (published 2021).
